Measurements taken from paper PMC9474812, “Structure of the membrane-bound formate hydrogenlyase complex from Escherichia coli” (Nature Communications, 2022).

T1: formate dehydrogenase H (FdhF) (Escherichia coli, UniProt P07658 1-715, metal-coordinating selenocysteine (Sec); position not given)
T1 construct: Formate dehydrogenase H, FdhF, subunit of the E. coli formate hydrogenlyase (FHL) complex; carries Mo(MGD)2 and [4Fe4S] cluster A1; Native subunit, not tagged; also called formate dehydrogenase subunit FdhF; source: endogenous, E. coli strain MG059e1, anaerobic fermentation; co-purified with His10-HycE from LMNG-solubilised membranes (HisTrap, SEC)
T1 sequence (looked up): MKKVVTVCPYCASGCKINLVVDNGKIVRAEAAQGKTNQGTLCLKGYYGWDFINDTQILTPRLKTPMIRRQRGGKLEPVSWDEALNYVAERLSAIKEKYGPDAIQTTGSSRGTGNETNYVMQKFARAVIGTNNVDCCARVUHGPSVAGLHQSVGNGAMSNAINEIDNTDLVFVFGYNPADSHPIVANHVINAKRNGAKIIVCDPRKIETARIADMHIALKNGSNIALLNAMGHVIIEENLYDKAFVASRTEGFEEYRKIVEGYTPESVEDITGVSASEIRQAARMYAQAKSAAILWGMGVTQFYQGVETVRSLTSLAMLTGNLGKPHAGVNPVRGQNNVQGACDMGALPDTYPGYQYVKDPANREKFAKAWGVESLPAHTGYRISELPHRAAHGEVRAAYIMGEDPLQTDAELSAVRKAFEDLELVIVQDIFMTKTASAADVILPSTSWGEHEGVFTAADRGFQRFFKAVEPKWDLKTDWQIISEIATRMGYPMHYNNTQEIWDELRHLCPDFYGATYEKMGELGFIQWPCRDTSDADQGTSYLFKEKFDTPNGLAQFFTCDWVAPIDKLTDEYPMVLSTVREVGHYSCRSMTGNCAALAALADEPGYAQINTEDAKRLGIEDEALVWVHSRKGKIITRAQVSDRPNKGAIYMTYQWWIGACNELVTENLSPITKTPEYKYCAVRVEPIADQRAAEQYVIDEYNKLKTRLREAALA

T2: HycC (Escherichia coli, UniProt P16429 1-608)
T2 construct: Native subunit from the hycABCDEFGHI operon, not tagged; also called antiporter-like subunit HycC; source: endogenous, E. coli strain MG059e1, anaerobic fermentation; co-purified with His10-HycE from LMNG-solubilised membranes (HisTrap, SEC)
T2 sequence (looked up): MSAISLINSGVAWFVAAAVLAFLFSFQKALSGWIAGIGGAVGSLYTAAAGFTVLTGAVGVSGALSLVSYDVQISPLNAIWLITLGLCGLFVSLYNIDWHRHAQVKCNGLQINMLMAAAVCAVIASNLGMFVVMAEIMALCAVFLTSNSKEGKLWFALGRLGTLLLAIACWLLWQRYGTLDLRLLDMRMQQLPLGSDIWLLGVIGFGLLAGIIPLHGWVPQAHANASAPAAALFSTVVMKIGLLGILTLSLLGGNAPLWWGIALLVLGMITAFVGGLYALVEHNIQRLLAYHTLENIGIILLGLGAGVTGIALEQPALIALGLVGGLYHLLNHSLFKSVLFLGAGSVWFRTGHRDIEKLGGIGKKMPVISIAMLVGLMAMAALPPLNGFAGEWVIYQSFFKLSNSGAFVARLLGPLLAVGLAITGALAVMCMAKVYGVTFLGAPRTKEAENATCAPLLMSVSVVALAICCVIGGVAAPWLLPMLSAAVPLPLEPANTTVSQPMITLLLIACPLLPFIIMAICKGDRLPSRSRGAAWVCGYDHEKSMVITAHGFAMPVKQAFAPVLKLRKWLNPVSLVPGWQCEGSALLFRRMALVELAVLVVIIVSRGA

B1: HycB (natural protein, Escherichia coli, UniProt P0AAK1 1-203, looked up)
chain: MNRFVIADSTLCIGCHTCEAACSETHRQHGLQSMPRLRVMLNEKESAPQLCHHCEDAPCAVVCPVNAITRVDGAVQLNESLCVSCKLCGIACPFGAIEFSGSRPLDIPANANTPKAPPAPPAPARVSTLLDWVPGIRAIAVKCDLCSFDEQGPACVRMCPTKALHLVDNTDIARVSKRKRELTFNTDFGDLTLFQQAQSGEAK
notes: HycB, ferredoxin-like subunit of the E. coli formate hydrogenlyase (FHL) complex; coordinates [4Fe4S] clusters B1-B4; Native subunit from the hycABCDEFGHI operon, not tagged; also called ferredoxin-like protein HycB; source: endogenous, E. coli strain MG059e1, anaerobic fermentation; co-purified with His10-HycE from LMNG-solubilised membranes (HisTrap, SEC)
B2: HycD (natural protein, Escherichia coli, UniProt P16430 1-307, looked up)
chain: MSVLYPLIQALVLFAVAPLLSGITRVARARLHNRRGPGVLQEYRDIIKLLGRQSVGPDASGWVFRLTPYVMVGVMLTIATALPVVTVGSPLPQLGDLITLLYLFAIARFFFAISGLDTGSPFTAIGASREAMLGVLVEPMLLLGLWVAAQVAGSTNISNITDTVYHWPLSQSIPLVLALCACAFATFIEMGKLPFDLAEAEQELQEGPLSEYSGSGFGVMKWGISLKQLVVLQMFVGVFIPWGQMETFTAGGLLLALVIAIVKLVVGVLVIALFENSMARLRLDITPRITWAGFGFAFLAFVSLLAA
notes: HycD, integral membrane subunit (ND1 homolog) of the E. coli formate hydrogenlyase (FHL) complex, eight TMHs; Native subunit from the hycABCDEFGHI operon, not tagged; also called membrane-anchor subunit HycD (ND1 homolog); source: endogenous, E. coli strain MG059e1, anaerobic fermentation; co-purified with His10-HycE from LMNG-solubilised membranes (HisTrap, SEC)
B3: HycF (natural protein, Escherichia coli, UniProt P16432 1-180, looked up)
chain: MFTFIKKVIKTGTATSSYPLEPIAVDKNFRGKPEQNPQQCIGCAACVNACPSNALTVETDLATGELAWEFNLGHCIFCGRCEEVCPTAAIKLSQEYELAVWKKEDFLQQSRFALCNCRVCNRPFAVQKEIDYAIALLKHNGDSRAENHRESFETCPECKRQKCLVPSDRIELTRHMKEAI
notes: HycF, ferredoxin-like subunit (NDUFS8 homolog) of the E. coli formate hydrogenlyase (FHL) complex; coordinates [4Fe4S] clusters F1, F2 and a metal ion at Cys117, Cys120, Cys155, Cys158; Native subunit from the hycABCDEFGHI operon, not tagged; also called ferredoxin-like protein HycF; source: endogenous, E. coli strain MG059e1, anaerobic fermentation; co-purified with His10-HycE from …
B4: HycE, the large hydrogenase subunit of FHL, with an internal 10x His affinity tag (enzyme, Escherichia coli, UniProt P16431 1-537, looked up)
chain: MSEEKLGQHYLAALNEAFPGVVLDHAWQTKDQLTVTVKVNYLPEVVEFLYYKQGGWLSVLFGNDERKLNGHYAVYYVLSMEKGTKCWITVRVEVDANKPEYPSVTPRVPAAVWGEREVRDMYGLIPVGLPDERRLVLPDDWPDELYPLRKDSMDYRQRPAPTTDAETYEFINELGDKKNNVVPIGPLHVTSDEPGHFRLFVDGENIIDADYRLFYVHRGMEKLAETRMGYNEVTFLSDRVCGICGFAHSTAYTTSVENAMGIQVPERAQMIRAILLEVERLHSHLLNLGLACHFTGFDSGFMQFFRVRETSMKMAEILTGARKTYGLNLIGGIRRDLLKDDMIQTRQLAQQMRREVQELVDVLLSTPNMEQRTVGIGRLDPEIARDFSNVGPMVRASGHARDTRADHPFVGYGLLPMEVHSEQGCDVISRLKVRINEVYTALNMIDYGLDNLPGGPLMVEGFTYIPHRFALGFAEAPRGDDIHWSMTGDNQKLYRWRCRAATYANWPTLRYMLRGNTVSDAPLIIGSLDPCYSCTDR
notes: HycE, large [NiFe] hydrogenase subunit of the E. coli formate hydrogenlyase (FHL) complex; His10 tag placed after Gly-83; also called [NiFe] hydrogenase HycE; Hyd-3 large subunit; source: purified from LMNG-solubilised membranes (HisTrap, SEC); not shown: His10, internal (after residue 83), kept

How the values were obtained:
[1] = molecular target: T1, formate dehydrogenase H (FdhF); experiment: cryo-EM structure; aerobically isolated FHL (heptameric FdhF-HycBCDEFG) in LMNG, single-particle analysis, 3.4 Å (focused refinements 3.0-3.4 Å); conditions: both partners purified
[2] = molecular target: B4; experiment: co-purification (His-tag affinity, then SEC); anaerobic isolation: as the aerobic one but in an anaerobic chamber (<1 ppm O2, 3-4% hydrogen in nitrogen), anaerobic buffers, lysis by sonication (also bead-beating or B-PER); conditions: partners not purified
[3] = molecular target: T2, HycC; experiment: cryo-EM structure; anaerobically isolated FHL (hexameric HycBCDEFG) in LMNG, grids prepared in the anaerobic chamber with fluorinated fos-choline-8, 2.6 Å; conditions: both partners purified
[4] = molecular target: B4; experiment: co-purification (His-tag affinity, then SEC); aerobic isolation: membranes solubilised with 0.5% LMNG, HisTrap FF by the His10 tag in HycE, Superdex 200 Increase; 20 mM Tris, 200 mM NaCl, 1 mM DTT, 0.005% LMNG, pH 7.5; conditions: partners not purified
[5] = molecular target: B1; experiment: cryo-EM structure; anaerobically isolated FHL (hexameric HycBCDEFG) in LMNG, grids prepared in the anaerobic chamber with fluorinated fos-choline-8, 2.6 Å; conditions: both partners purified
[6] = molecular target: T2, HycC; experiment: co-purification (His-tag affinity, then SEC); aerobic isolation: membranes solubilised with 0.5% LMNG, HisTrap FF by the His10 tag in HycE, Superdex 200 Increase; 20 mM Tris, 200 mM NaCl, 1 mM DTT, 0.005% LMNG, pH 7.5; conditions: partners not purified

Binder: B1
binding result [1]: binds
binding result [2]: binds

Binder: B2
binding result [3]: binds
binding result [4]: binds

Binder: B3
binding result [1]: binds
binding result [5]: binds

Binder: B4
binding result [6]: binds
